1 substance from paper PMC6933771 can be followed below.

In this experiment the target is human prothrombin (human).

Substance staphylocoagulase (natural protein) gave an amidolytic activity of the SCG-PT complex on the chromogenic thrombin substrate S-2238, specific activity relative to human thrombin (9.1 IU/nmol) of 5.5 IU/nmol; a clotting activity of the SCG-PT complex in human plasma, specific activity relative to human thrombin of 4.2 IU/nmol; a clotting activity of the SCG-PT complex on purified human fibrinogen (3.0 g/L), specific activity relative to human thrombin of 3.6 IU/nmol.
